Results taken from US20250320286A1 (Janssen / Centocor, published 2025).

Tests used:
fibronectin [1] = assay: SPR; no binding up to 1.2 µM
Protocol: (§1) In some instances, binding affinities and specificity of anti-Aβ 3pE mAbs were measured by SPR performed using different instruments (Biacore T200, Biacore 8K or MASS-2 (Biacore, Inc.)) and anti-human or anti-mouse immunoglobulin biosensor surfaces. Anti-human or anti-mouse immunoglobulin antibodies were covalently coupled to the surface of CM4 or CM5 sensor chips (GE Healthcare) using manufacturer instructions for amine-coupling chemistry. Antibodies of interest were captured on the anti-human or mouse immunoglobulin sensor chip to a level of 300-400 RU, followed by injection of Aβ peptides or proteins (examples: human Aβ 3pE-40(SEQ ID NO:40), Aβ 3pE-28 (SEQ ID NO:42), scrambled Aβ 3pE-28 (SEQ ID NO:44), Aβ 1-28 (SEQ ID NO:43), mouse Aβ 3pE-28 (SEQ ID NO:46), or Fibronectin) at various concentrations in HEPES Buffered Saline containing 0.005% surfactant P20 (Tween™ 20). The surface was regenerated with 2 pulses injections of 30 μL of 10 mM Gly pH1.5 at 100 μL/min. Data reported is the difference in SPR signal between the flow cell containing the captured antibody and a reference cell without captured antibody. Additional instrumental contributions to the signal were removed by subtraction of the data from the blank injection from the reference-subtracted signal. When applicable data were analyzed by fitting association and dissociation phases at all concentrations (global fit) with a 1:1 binding model using the Biaevaluation software (Biacore, Inc.). Otherwise the data was evaluated qualitatively for YES/NO binding.

4U-3pE-beta-Amyloid = assay: SPR; 4U-3pE-beta-Amyloid 0.6 to 4.5 nM
fibronectin [2] = assay: SPR; KD for this target divided by KD for human Aβ 3pE-28
Protocol: as §1

[3] = target: T1, 3pE Aβ peptide (antigen, form not stated); assay: SPR; antigen peptide not named
T1 construct: also called the peptide

[4] = target: T1, 3pE Aβ peptide (antigen, form not …); assay: SPR; antigen peptide not named; range over the HFA variants
human Aβ1-42 peptide = human Aβ1-42 peptide (human); assay: sandwich ELISA, BAMB31_1 coated, JRF/cAβ42/26-HRPO detection
Protocol: For the selected Aβ3pE monoclonal antibody BAMB31, the cross-reactivity with rodent Aβ3pE-40 (SEQ ID NO:45) and human Aβ1-40 (SEQ ID NO:41), Aβ1-42 (SEQ ID NO: 48), Aβ11pE-40(SEQ ID NO:49) and Aβ11pE-42 (SEQ ID NO:50) was evaluated using synthetic peptides. The combination BAMB31 +JRF/cAβ40/28-HRPO was used to investigate the cross-reactivity with Aβ1-40 (SEQ ID NO:41), Aβ11pE-40 (SEQID NO: 49) and rodent Aβ3pE-40 (SEQ ID NO:45), and the combination BAMB31+JRF/cAβ42/26-HRPO was used to investigate the cross-reactivity with Aβ1-42 (SEQ ID NO:48) and Aβ11pE-42 (SEQ ID NO:50). Concentrations up to 10,000 pg/mL were tested.
Materials and Methods: Standards were dissolved in dimethylsulphoxide (DMSO) (Sigma) at 0.1 mg/mL and stored at −80° C. For use in ELISA, peptides were further diluted in 0.1% casein in PBS down to 1 pg/mL. Ninety-six-well-plates (Maxisorb ELISA plates; NUNC) were coated overnight at 4° C. with monoclonal antibodies from BAMB31_1 at a concentration of 1.5 μg/mL in coating buffer. The next day, plates were washed and blocked with 0.1% casein in PBS for 1-4 hours at room temperature. Standards were incubated overnight at 4° C. together with HRPO-labeled secondary antibody (JRF/cAβ40/28-HRPO or JRF/cAβ42/26-HRPO). […]

Chain of human Aβ1-42 peptide (human) (peptide, as listed by the source): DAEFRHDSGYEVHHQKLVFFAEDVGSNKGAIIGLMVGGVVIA

Binder	Kd (4U-3pE-beta-Amyloid) [nM]	koff (4U-3pE-beta-Amyloid) [s⁻¹]	kon (4U-3pE-beta-Amyloid) [M⁻¹ s⁻¹]	Kd [3] [nM]	other results
BAMB674 (antibody, human IgG1, kappa, Lead HFA variant, wild type human IgG1; HCDR2 N55S; also called BAMAB674; BAMB31 HFA mAb, wild type IgG1) heavy: not shown light: DVVMTQSPLSLPVTLGQPASISCKSSQSLLDSRAKTYLTWLQQRPGQSPRRLIYLVSKLDSGVPDRFSGSGSGTDFTLKISRVEAEDVGVYYCWQGTHFPYTFGGGTKLEIKRTVAAPSVFIFPPSDEQLKSGTASVVCLLNNFYPREAKVQWKVDNALQSGNSQESVTEQDSKDSTYSLSSTLTLSKADYEKHKVYACEVTHQGLSSPVTKSFNRGEC	0.0401	0.000136	3.39e+06		Kd (fibronectin [1]): > 1200 nM; Fold Selectivity (fibronectin [2]): > 47000 fold
BAMB246 (human IgG1 chimera) (antibody, Mouse variable regions on a human IgG1 constant region; also called BAMB246 (human chimeric parent)) heavy: not shown light: DVVMTQTPLTLSVTIGQPASISCKSSQSLLDSNGKTYLTWLLQRPGQSPKRLIYLVSKLDSGVPDRFTGSGAGTDFTLKIIRVEAEDLGVYYCWQGTHFPYTFGGGTKLEIKRTVAAPSVFIFPPSDEQLKSGTASVVCLLNNFYPREAKVQWKVDNALQSGNSQESVTEQDSKDSTYSLSSTLTLSKADYEKHKVYACEVTHQGLSSPVTKSFNRGEC				0.0139	Kd (fibronectin [1]): > 1200 nM; Fold Selectivity (fibronectin [2]): > 95000 fold
BAMB614 (antibody, human IgG1, kappa, V domains shown, BAMB31 HFA variant, human IgG1) VH: QVQLVQSGAEVKKPGASVKVSCKASGHVFTSYDMYWVRQAPGQGLEWIGYIDSDNGDTSYNQKFKGRVTLTVDTSTSTVYMELSSLRSEDTAVYYCAYYRYAMDYWGQGTLVTVSS VL: DVVMTQSPLSLPVTLGQPASISCKSSQSLLDSRAKTYLTWLQQRPGQSPRRLIYLVSKLDSGVPDRFSGSGSGTDFTLKISRVEAEDVGVYYCWQGTHFPYTFGGGTKLEIKR				0.016	
BAMB611 (antibody, human IgG1, kappa, V domains shown, BAMB31 HFA variant, human IgG1) VH: QVQLVQSGAEVKKPGASVKVSCKASGHVFTSYDMYWVRQAPGQGLEWMGYIDSDNGDTSYNQKFKGRVTMTVDTSTSTVYMELSSLRSEDTAVYYCAYYRYAMDYWGQGTLVTVSS VL: DVVMTQSPLSLPVTLGQPASISCKSSQSLLDSNGKTYLTWFQQRPGQSPRRLIYLVSKLDSGVPDRFSGSGSGTDFTLKISRVEAEDVGVYYCWQGTHFPYTFGGGTKLEIKR				1.52	Kd [4]: 1.52 nM
BAMB613 (antibody, human IgG1, kappa, V domains shown, BAMB31 HFA variant, human IgG1) VH: QVQLVQSGAEVKKPGASVKVSCKASGHVFTSYDMYWVRQAPGQGLEWIGYIDSDNGDTSYNQKFKGKVTLTVDTSTSTVYMELSSLRSEDTAVYYCAYYRYAMDYWGQGTLVTVSS VL: DVVMTQSPLSLPVTLGQPASISCKSSQSLLDSRAKTYLTWLQQRPGQSPRRLIYLVSKLDSGVPDRFSGSGSGTDFTLKISRVEAEDVGVYYCWQGTHFPYTFGGGTKLEIKR				0.0182	
BAMB612 (antibody, human IgG1, kappa, V domains shown, BAMB31 HFA variant, human IgG1) VH: QVQLVQSGAEVKKPGASVKVSCKASGHVFTSYDMYWVRQSPGQGLEWIGYIDSDNGDTSYNQKFKGRVTLTVDTSTSTVYMELSSLRSEDTAVYYCAYYRYAMDYWGQGTLVTVSS VL: DVVMTQSPLSLPVTLGQPASISCKSSQSLLDSRAKTYLTWLQQRPGQSPRRLIYLVSKLDSGVPDRFSGSGSGTDFTLKISRVEAEDVGVYYCWQGTHFPYTFGGGTKLEIKR				0.0117	Kd [4]: 0.0117 nM
BAMB31_1 (antibody, mouse IgG1, V domains shown, Hybridoma antibody) VH: EIQLQQSGPELVKPGTSVKVSCKASGHVFTSYDMYWVKQSHGKSLEWIGYIDSDNGDTSYNQKFKGKATLTVDKSSSTAYMHLNSLTSEDSAVYYCAYYRYAMDYWGQGTSVTVSS VL: not shown					binding result (human Aβ1-42 peptide): no binding (tested: 10 ng/ml)

Now from value to binder, other results behind:

Kd (4U-3pE-beta-Amyloid) [nM]	koff (4U-3pE-beta-Amyloid) [s⁻¹]	kon (4U-3pE-beta-Amyloid) [M⁻¹ s⁻¹]	Kd [3] [nM]	Binder	other results
0.0314	9.47e-05	3.01e+06		BAMB701 (antibody, human IgG1, kappa) heavy: QVQLVQSGAEVKKPGASVKVSCKASGHVFTSYDMYWVRQAPGQGLEWIGYIDSDSGDTSYNQKFKGRVTLTVDTSTSTVYMELSSLRSEDTAVYYCAYYRYAMDYWGQGTLVTVSSASTKGPSVFPLAPSSKSTSGGTAALGCLVKDYFPEPVTVSWNSGALTSGVHTFPAVLQSSGLYSLSSVVTVPSSSLGTQTYICNVNHKPSNTKVDKKVEPKSCDKTHTCPPCPAPELLGGPSVFLFPPKPKDTLYITREPEVTCVVVDVSHEDPEVKFNWYVDGVEVHNAKTKPREEQYNSTYRVVSVLTVLHQDWLNGKEYKCKVSNKALPAPIEKTISKAKGQPREPQVYTLPPSREEMTKNQVSLTCLVKGFYPSDIAVEWESNGQPENNYKTTPPVLDSDGSFFLYSKLTVDKSRWQQGNVFSCSVMHEALHNHYTQKSLSLSPGK light: DVVMTQSPLSLPVTLGQPASISCKSSQSLLDSRAKTYLTWLQQRPGQSPRRLIYLVSKLDSGVPDRFSGSGSGTDFTLKISRVEAEDVGVYYCWQGTHFPYTFGGGTKVEIKRTVAAPSVFIFPPSDEQLKSGTASVVCLLNNFYPREAKVQWKVDNALQSGNSQESVTEQDSKDSTYSLSSTLTLSKADYEKHKVYACEVTHQGLSSPVTKSFNRGEC	
0.0342	9.86e-05	2.88e+06		BAMB700 (antibody, human IgG1, kappa) heavy: not shown light: DVVMTQSPLSLPVTLGQPASISCKSSQSLLDSRAKTYLTWLQQRPGQSPRRLIYLVSKLDSGVPDRFSGSGSGTDFTLKISRVEAEDVGVYYCWQGTHFPYTFGQGTKLEIKRTVAAPSVFIFPPSDEQLKSGTASVVCLLNNFYPREAKVQWKVDNALQSGNSQESVTEQDSKDSTYSLSSTLTLSKADYEKHKVYACEVTHQGLSSPVTKSFNRGEC	
0.0443	0.000166	3.74e+06		BAMB675 (antibody, human IgG1, kappa, Same V regions as BAMB674 on IgG1 with M37Y, S39T, T41E in the Fc (numbering on GenBank AEV43323); also called BAMB31 HFA mAb, +YTE IgG1) heavy: QVQLVQSGAEVKKPGASVKVSCKASGHVFTSYDMYWVRQAPGQGLEWIGYIDSDSGDTSYNQKFKGRVTLTVDTSTSTVYMELSSLRSEDTAVYYCAYYRYAMDYWGQGTLVTVSSASTKGPSVFPLAPSSKSTSGGTAALGCLVKDYFPEPVTVSWNSGALTSGVHTFPAVLQSSGLYSLSSVVTVPSSSLGTQTYICNVNHKPSNTKVDKKVEPKSCDKTHTCPPCPAPELLGGPSVFLFPPKPKDTLYITREPEVTCVVVDVSHEDPEVKFNWYVDGVEVHNAKTKPREEQYNSTYRVVSVLTVLHQDWLNGKEYKCKVSNKALPAPIEKTISKAKGQPREPQVYTLPPSREEMTKNQVSLTCLVKGFYPSDIAVEWESNGQPENNYKTTPPVLDSDGSFFLYSKLTVDKSRWQQGNVFSCSVMHEALHNHYTQKSLSLSPGK light: DVVMTQSPLSLPVTLGQPASISCKSSQSLLDSRAKTYLTWLQQRPGQSPRRLIYLVSKLDSGVPDRFSGSGSGTDFTLKISRVEAEDVGVYYCWQGTHFPYTFGGGTKLEIKRTVAAPSVFIFPPSDEQLKSGTASVVCLLNNFYPREAKVQWKVDNALQSGNSQESVTEQDSKDSTYSLSSTLTLSKADYEKHKVYACEVTHQGLSSPVTKSFNRGEC	Kd (fibronectin [1]): > 1200 nM; Fold Selectivity (fibronectin [2]): > 46000 fold
			0.018	BAMB631 (antibody, human IgG1, kappa, V domains shown, BAMB31 HFA variant, human IgG1) VH: QVQLVQSGAEVKKPGASVKVSCKASGHVFTSYDMYWVRQAPGQSLEWMGYIDSDNGDTSYNQKFKGRVTLTVDTSTSTVYMELSSLRSEDTAVYYCAYYRYAMDYWGQGTLVTVSS VL: DVVMTQSPLSLPVTLGQPASISCKSSQSLLDSRAKTYLTWLLQRPGQSPRRLIYLVSKLDSGVPDRFSGSGSGTDFTLKISRVEAEDVGVYYCWQGTHFPYTFGGGTKLEIKR	
			0.0383	BAMB630 (antibody, human IgG1, kappa, V domains shown, BAMB31 HFA variant, human IgG1) VH: QVQLVQSGAEVKKPGASVKVSCKASGHVFTSYDMYWVKQAPGQSLEWIGYIDSDNGDTSYNQKFKGKVTLTVDTSTSTVYMELSSLRSEDTAVYYCAYYRYAMDYWGQGTLVTVSS VL: DVVMTQSPLSLPVTLGQPASISCKSSQSLLDSRAKTYLTWLLQRPGQSPRRLIYLVSKLDSGVPDRFSGSGSGTDFTLKISRVEAEDVGVYYCWQGTHFPYTFGGGTKLEIKR	
			0.0183	BAMB623 (antibody, human IgG1, kappa, V domains shown, BAMB31 HFA variant, human IgG1) VH: QVQLVQSGAEVKKPGASVKVSCKASGHVFTSYDMYWVRQAPGQSLEWIGYIDSDNGDTSYNQKFKGKATMTVDTSTSTVYMELSSLRSEDTAVYYCAYYRYAMDYWGQGTLVTVSS VL: DVVMTQSPLSLPVTLGQPASISCKSSQSLLDSRAKTYLTWLQQRPGQSPRRLIYLVSKLDSGVPDRFSGSGSGTDFTLKISRVEAEDVGVYYCWQGTHFPYTFGGGTKLEIKR	
